Data reported in PMC2719339.

What was measured:
[1] = target: thiostrepton resistance RNA methyltransferase (Tsr) (Streptomyces azureus) (UniProt P18644); test: SEC
[2] = target: thiostrepton resistance RNA methyltransferase (Tsr) (Streptomyces azureus) (UniProt P18644); test: native gel or EMSA

Work on “thiostrepton resistance RNA methyltransferase (Tsr) (from UniProt P18644 1-269) (enzyme)” yielded a stoichiometry N [1] of 2 and a stoichiometry N [2] of 2.
